Data on two molecules can be found in article PMC12607020, “NITAC-mediated ISGylation of eIF4E2 attenuates GSK3β proline-directed kinase activity, conferring cytoprotection” (The Journal of Biological Chemistry, 2025).

The assay has as its target T1, GST-eIF4E2 (UniProt O60573 1-245).
T1 construct: eukaryotic translation initiation factor 4E family member 2 (eIF4E2, 4EHP); also called GST-tagged eIF4E2; source: E. coli BL21, purified (glutathione sepharose beads)
T1 sequence (looked up): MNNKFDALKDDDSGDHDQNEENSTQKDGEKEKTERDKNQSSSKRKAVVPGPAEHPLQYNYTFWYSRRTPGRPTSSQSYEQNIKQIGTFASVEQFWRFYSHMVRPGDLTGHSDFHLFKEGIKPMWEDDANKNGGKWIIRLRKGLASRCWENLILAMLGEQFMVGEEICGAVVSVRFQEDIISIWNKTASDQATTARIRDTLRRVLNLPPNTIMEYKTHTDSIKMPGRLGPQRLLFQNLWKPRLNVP
The experiment in a line: pull-down; GST pull-down: 1 nM His6-tagged and 1 nM GST-tagged protein in 50 mM Hepes pH 7.5, 50 mM NaCl, 2 mM EDTA, 0.1% NP-40, 10% glycerol, 2 h at 4 °C; glutathione-sepharose beads; immunoblot. The following applies: both partners purified.

B1: His6-tagged Nb.28E11 (VHH)
VHH: QVQLQESGGGLVQAGGSLRLSCAASGRTFSSYAMGWFRQAPGKEREFVAAISSGGSITNYADSVKGRFTISRDNAKNTVYLQMNSLKPEDTAVYYCAARYHSLYYGYWGQGTQVTVSS
notes: nanobody from a synthetic yeast-display library; also called His6-Nb.28E11; source: E. coli BL21, purified (Ni-NTA)
With B1, the binding result is “binds”.

B2: His6-tagged Nb.30C7 (VHH)
VHH: QVQLQESGGGLVQAGGSLRLSCAASGYTFSSNVMGWFRQAPGKEREFVAAINSGGGRTNYADSVKGRFTISRDNAKNTVYLQMNSLKPEDTAVYYCAAYGRANSSYNYGYWGQGTQVTVSS
notes: nanobody from a synthetic yeast-display library; also called His6-Nb.30C7; source: E. coli BL21, purified (Ni-NTA)
B2: the binding result was “binds”.
